Entries after “also recorded” stand apart in the source; their conditions may differ.
B1: protein isolated from human blood: native renalase isolated from human blood under basal conditions (protein, UniProt Q5VYX0 18-342, looked up)
Renalase: ALLRRQTSGPLYLAVWDKAEDSGGRMTTACSPHNPQCTADLGAQYITCTPHYAKKHQRFYDELLAYGVLRPLSSPIEGMVMKEGDCNFVAPQGISSIIKHYLKESGAEVYFRHRVTQINLRDDKWEVSKQTGSPEQFDLIVLTMPVPEILQLQGDITTLISECQRQQLEAVSYSSRYALGLFYEAGTKIDVPWAGQYITSNPCIRFVSIDNKKRNIESSEIGPSLVIHTTVPFGVTYLEHSIEDVQELVFQQLENILPGLPQPIATKCQKWRHSQVTNAAANCPGQMTLHHKPFLACGGDGFTQSNFDGCITSALCVLEALKNYI
B2: renalase isolated from human urine: native renalase isolated from human urine (protein, UniProt Q5VYX0 18-342, looked up)
Renalase: ALLRRQTSGPLYLAVWDKAEDSGGRMTTACSPHNPQCTADLGAQYITCTPHYAKKHQRFYDELLAYGVLRPLSSPIEGMVMKEGDCNFVAPQGISSIIKHYLKESGAEVYFRHRVTQINLRDDKWEVSKQTGSPEQFDLIVLTMPVPEILQLQGDITTLISECQRQQLEAVSYSSRYALGLFYEAGTKIDVPWAGQYITSNPCIRFVSIDNKKRNIESSEIGPSLVIHTTVPFGVTYLEHSIEDVQELVFQQLENILPGLPQPIATKCQKWRHSQVTNAAANCPGQMTLHHKPFLACGGDGFTQSNFDGCITSALCVLEALKNYI
B3: renalase: recombinant renalase protein made in E. coli, refolded before administration; secreted FAD-containing monoamine oxidase of the kidney (protein)
chain: ALLRKEITAPLYLALWDKAGDIGGRMTTANSPHNPRCTADLGAQYITCTPHYAKKHQNFYEELLAHGILEPLTSPIKGMEVKEGESNFVAPHGVSSIIKYYLKESGAEVFLRQCVTQINLRDNKWEVSEDTGSTQQFDLVILTMPAPQILGLQGDIVNLISERQRQQLASVSYSSRYALGLFYEAGMKIDVPWAGQYITSNPCIRFISIDSKKRNTESSECGPLLVVHTTVPFGVTHLEHSEEDVQELITQQLETILPGLPPPVATKCWKWRYSQVTNSAANSPGQMTLHLNPFLIYI

Legend:
[1] = amine oxidase activity in vitro of renalase isolated from blood and urine; type: biochemical, human; details: basal conditions
Source text: We have tested renalase isolated from blood and urine.

[2] = blood pressure and heart rate in conscious mice; type: in vivo
Method: We also tested the effect of renalase on blood pressure and heart rate in conscious mice. Recombinant renalase was prepared using the method described in Example 3 of PCT/US05/009248, which is specifically and completely incorporated herein by reference. As explained in more detail therein, the recombinant protein made in E. coli as used in the examples herein is refolded before administration. Thus, the recombinant renalase protein as used herein is in the active form (i.e., it is active renalase as defined above).
The recombinant protein was given by tail vein injection (100 μg) or retroorbital injection (1 mg) and ambulatory blood pressure and heart rates were measured continuously for 24 hours.

[3] = test system: isolated perfused mouse heart; experiment: isolated perfused mouse heart model of ischemia-reperfusion
Source text: Since renalase can metabolize catecholamines, we tested whether it could protect against ischemic myocardial damage.

[4] = infusion of recombinant renalase into rats; type: in vivo

| Molecule | amine oxidase activity in vitro [1] | mean blood pressure ([2]; 100 μg by tail injection) | minute-to-minute variability in blood pressure ([2]; 100 μg by tail injection, conscious mice) | heart rate ([2]; 100 μg by tail injection, for several hours) | blood pressure ([2]; 1 mg by retroorbital injection) | heart rate ([2]; 1 mg by retroorbital injection) | reversibility of the blood pressure effect ([2]; continuous IV infusion, after stopping) | blood pressure ([2]; continuous infusion by tail vein, 20 μg/minute, during the period of infusion) | myocardial (left ventricular) function ([3]; infusion from 10 minutes before 15 min global ischemia until 2 hours after reperfusion, versus control protein glutathione synthase) | decrease of myocardial necrosis ([3]; ischemia-reperfusion, n=3, p<0.001) | blood pressure [4] | heart rate [4] |
| --- | --- | --- | --- | --- | --- | --- | --- | --- | --- | --- | --- | --- |
| B1 | no significant amine oxidase activity | – | – | – | – | – | – | – | – | – | – | – |
| B2 | metabolizes catecholamines | – | – | – | – | – | – | – | – | – | – | – |
| B3 | – | remained unchanged | decreased | significantly increased | significant and long-lasting fall | significant and long-lasting fall | reversible | reduction in blood pressure | preserved myocardial function significantly better; also recorded: preserves left ventrical (LV) function | 54% | reduction | lower |
